In IntAct's records for PubMed 18625701:

B1: Brefeldin A-inhibited guanine nucleotide-exchange protein 2 (Homo sapiens), Q9Y6D5 (parent)
chain: MQESQTKSMFVSRALEKILADKEVKRPQHSQLRRACQVALDEIKAEIEKQRLGTAAPPKANFIEADKYFLPFELACQSKSPRVVSTSLDCLQKLIAYGHITGNAPDSGAPGKRLIDRIVETICSCFQGPQTDEGVQLQIIKALLTAVTSPHIEIHEGTILQTVRTCYNIYLASKNLINQTTAKATLTQMLNVIFTRMENQVLQEARELEKPIQSKPQSPVIQAAAVSPKFVRLKHSQAQSKPTTPEKTDLTNGEHARSDSGKVSTENGDAPRERGSSLSGTDDGAQEVVKDILEDVVTSAIKEAAEKHGLTEPERVLGELECQECAIPPGVDENSQTNGIADDRQSLSSADNLESDAQGHQVAARFSHVLQKDAFLVFRSLCKLSMKPLGEGPPDPKSHELRSKVVSLQLLLSVLQNAGPVFRTHEMFINAIKQYLCVALSKNGVSSVPDVFELSLAIFLTLLSNFKMHLKMQIEVFFKEIFLNILETSTSSFEHRWMVIQTLTRICADAQCVVDIYVNYDCDLNAANIFERLVNDLSKIAQGRSGHELGMTPLQELSLRKKGLECLVSILKCMVEWSKDLYVNPNHQTSLGQERLTDQEIGDGKGLDMARRCSVTSMESTVSSGTQTTVQDDPEQFEVIKQQKEIIEHGIELFNKKPKRGIQFLQEQGMLGTSVEDIAQFLHQEERLDSTQVGDFLGDSARFNKEVMYAYVDQLDFCEKEFVSALRTFLEGFRLPGEAQKIDRLMEKFAARYIECNQGQTLFASADTAYVLAYSIIMLTTDLHSPQVKNKMTKEQYIKMNRGINDSKDLPEEYLSSIYEEIEGKKIAMKETKELTIATKSTKQNVASEKQRRLLYNLEMEQMAKTAKALMEAVSHAKAPFTSATHLDHVRPMFKLVWTPLLAAYSIGLQNCDDTEVASLCLEGIRCAIRIACIFGMQLERDAYVQALARFSLLTASSSITEMKQKNIDTIKTLITVAHTDGNYLGNSWHEILKCISQLELAQLIGTGVKTRYLSGSGREREGSLKGHTLAGEEFMGLGLGNLVSGGVDKRQMASFQESVGETSSQSVVVAVDRIFTGSTRLDGNAIVDFVRWLCAVSMDELASPHHPRMFSLQKIVEISYYNMNRIRLQWSRIWHVIGDHFNKVGCNPNEDVAIFAVDSLRQLSMKFLEKGELANFRFQKDFLRPFEHIMKKNRSPTIRDMAIRCIAQMVNSQAANIRSGWKNIFAVFHQAASDHDGNIVELAFQTTCHIVTTIFQHHFPAAIDSFQDAVKCLSEFACNAAFPDTSMEAIRLIRFCGKYVSERPRVLQEYTSDDMNVAPGDRVWVRGWFPILFELSCIINRCKLDVRTRGLTVMFEIMKSYGHTFEKHWWQDLFRIVFRIFDNMKLPEQLSEKSEWMTTTCNHALYAICDVFTQFYEALNEVLLSDVFAQLQWCVKQDNEQLARSGTNCLENLVISNGEKFSPEVWDETCNCMLDIFKTTIPHVLLTWRPVGMEEDSSEKHLDVDLDRQSLSSIDKNPSERGQSQLSNPTDDSWKGRPYANQKLFASLLIKCVVQLELIQTIDNIVFYPATSKKEDAEHMVAAQQDTLDADIHIETEDQGMYKYMSSQHLFKLLDCLQESHSFSKAFNSNYEQRTVLWRAGFKGKSKPNLLKQETSSLACCLRILFRMYVDENRRDSWEEIQQRLLTVCSEALAYFITVNSESHREAWTSLLLLLLTKTLKINDEKFKAHASMYYPYLCEIMQFDLIPELRAVLRKFFLRIGVVYKIWIPEEPSQVPAALSPVW

Variants of: B1
Conditions: with kap3_human PRKAR2B

Row | effect of a mutation on the interaction | Variant
1 | disrupting interaction | V289W
2 | disrupting interaction | V534W
